Read-outs that look alike come from different tables or passages of the source. Values belong to the binder of their own block, whether it stands above or below them.
Legend:
[1] = molecular target: T1, human CD324 on cells (MCF7, BR22, NTX tumor cells, 293-hCD324) (human, UniProt P12830 155-882); assay: cell-based or functional assay
T1 sequence: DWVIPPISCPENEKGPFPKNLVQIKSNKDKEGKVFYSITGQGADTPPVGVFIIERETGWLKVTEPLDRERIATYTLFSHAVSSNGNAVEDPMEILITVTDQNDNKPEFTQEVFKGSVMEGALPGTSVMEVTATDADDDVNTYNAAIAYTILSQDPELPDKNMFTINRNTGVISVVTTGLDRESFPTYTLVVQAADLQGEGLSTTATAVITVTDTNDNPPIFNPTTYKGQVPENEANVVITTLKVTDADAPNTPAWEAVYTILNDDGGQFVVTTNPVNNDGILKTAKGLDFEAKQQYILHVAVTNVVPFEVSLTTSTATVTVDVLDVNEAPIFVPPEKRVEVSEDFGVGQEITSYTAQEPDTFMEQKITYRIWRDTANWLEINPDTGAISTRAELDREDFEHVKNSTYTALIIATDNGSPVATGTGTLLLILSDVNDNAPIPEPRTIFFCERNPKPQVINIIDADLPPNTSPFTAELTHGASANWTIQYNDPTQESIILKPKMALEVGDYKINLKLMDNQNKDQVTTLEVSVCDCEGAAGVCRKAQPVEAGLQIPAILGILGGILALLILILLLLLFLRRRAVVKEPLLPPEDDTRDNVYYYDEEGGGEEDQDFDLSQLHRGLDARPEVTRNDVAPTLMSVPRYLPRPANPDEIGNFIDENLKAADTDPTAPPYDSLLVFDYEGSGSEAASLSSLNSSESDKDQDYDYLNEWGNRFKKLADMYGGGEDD

[2] = molecular target: T1, human CD324 on cells (MCF7, BR22, NTX …); assay: cell-based or functional assay; remark: listed apart in the source
[3] = molecular target: T1, human CD324 on cells (MCF7, BR22, NTX …); assay: cell-based or functional assay; remark: listed apart in the source
[4] = molecular target: T2, mouse CD324 (Sino Biologics) (mouse, UniProt P09803 157-709, limits assumed); assay: direct ELISA on plate-coated mouse CD324 (Example 7, paragraph 375; paragraph 370 names ForteBio)
T2 construct: bought recombinant protein coated on the ELISA plate; also called murine CD324; mouse homolog
T2 sequence (looked up): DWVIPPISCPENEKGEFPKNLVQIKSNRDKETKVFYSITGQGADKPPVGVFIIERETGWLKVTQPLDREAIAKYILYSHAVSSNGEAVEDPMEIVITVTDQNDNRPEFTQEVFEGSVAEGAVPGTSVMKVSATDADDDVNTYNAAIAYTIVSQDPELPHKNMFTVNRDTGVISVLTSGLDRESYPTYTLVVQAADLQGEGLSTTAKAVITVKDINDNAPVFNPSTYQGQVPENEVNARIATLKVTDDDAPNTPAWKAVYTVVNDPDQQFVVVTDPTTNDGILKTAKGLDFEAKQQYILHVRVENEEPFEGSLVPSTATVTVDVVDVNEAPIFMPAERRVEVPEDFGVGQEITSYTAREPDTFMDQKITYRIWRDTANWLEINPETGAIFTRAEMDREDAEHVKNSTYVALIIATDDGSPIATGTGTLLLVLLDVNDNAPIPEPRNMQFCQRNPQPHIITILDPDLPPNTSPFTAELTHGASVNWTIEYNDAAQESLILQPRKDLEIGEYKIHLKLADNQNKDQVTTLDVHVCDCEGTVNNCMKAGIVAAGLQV

[5] = molecular target: T1, human CD324 on cells (MCF7, BR22, NTX …); assay: cell-based or functional assay; remark: listed apart in the source
[6] = molecular target: T3, human CD324-His recombinant protein (Sino Biological, Inc.) (human, UniProt P12830 155-709); assay: SPR (Biacore), concentration series 25, 12.5 and 6.25 nM, 1:1 Langmuir binding model; murine parent antibody
T3 construct: bought soluble protein; The antigen of the Biacore experiment is only called human CD324 antigen; also called hCD324-His; human CD324 antigen; not shown: His tag
T3 sequence: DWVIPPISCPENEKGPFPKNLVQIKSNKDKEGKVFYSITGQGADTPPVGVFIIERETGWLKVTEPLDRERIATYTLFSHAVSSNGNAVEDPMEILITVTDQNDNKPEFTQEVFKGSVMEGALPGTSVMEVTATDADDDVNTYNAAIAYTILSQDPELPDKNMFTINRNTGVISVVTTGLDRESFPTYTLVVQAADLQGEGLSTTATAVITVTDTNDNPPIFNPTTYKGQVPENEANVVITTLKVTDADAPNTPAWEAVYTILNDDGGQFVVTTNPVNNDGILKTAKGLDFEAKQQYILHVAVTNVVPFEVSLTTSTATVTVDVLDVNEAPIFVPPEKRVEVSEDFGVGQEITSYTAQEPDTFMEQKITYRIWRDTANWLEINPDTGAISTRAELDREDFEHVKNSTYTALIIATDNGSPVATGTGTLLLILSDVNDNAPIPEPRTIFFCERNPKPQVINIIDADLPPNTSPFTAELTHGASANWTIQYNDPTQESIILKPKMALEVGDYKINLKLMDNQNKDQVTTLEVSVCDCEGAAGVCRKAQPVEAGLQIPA

[7] = molecular target: T1, human CD324 on cells (MCF7, BR22, NTX …); assay: cell-based or functional assay; remark: listed apart in the source
[8] = molecular target: T1, human CD324 on cells (MCF7, BR22, NTX …); assay: cell-based or functional assay; remark: listed apart in the source

B2: SC10.38 (antibody, V domains shown)
VH: QVQLQQSGAELMKTGASVKISCKATGYTFSSYWIEWVKQRPGHGLEWIGEILPGSGKTNYNENFKGKATFTADTSSNTAYMQLSSLTSEDSVVYYCARRGAYYGNFDYWGQGTTLTVSS
VL: DIQMNQSPSSLSASLGDTITITCHVSQNINVWLTWYQQKPGNIPKLLLYKASNLQTGVPSRFSGSGSGTGFTLTISSLQPEDIATYYCQQGQSYPFTFGSGTK
Normalized RLU at 10pM (MCF7, Fab-saporin) [1]: 102
Normalized RLU at 100pM (MCF7, Fab-saporin) [1]: 106

B6: SC10.17 (antibody, V domains shown)
VH: DVQLVESGGGLVQPGGSRKLSCAASGFTFSSYGMHWVRQAPETGLEWVAYITTRSSTIYYAATVKGRFTISRDNARNTLFLQMTSLRSEDTAMYYCTREPLTGYYAMDYWGQGTSVTVSS
VL: DVLMTQTPLSLPVSLGDQASISCRSSQSIVHSDGNTYLEWYLRKPGQSPRLLIYKVSNRFSGVPDRFSGSGSGTDFTLKISRVEAEDLGVYYCFQGSHAPWTFGGGTKLEIK
notes: murine monoclonal antibody from hybridoma; also called murine SC10.17; mAb SC10.17
Percent live cells remaining at 10pM (MCF7, Fab-saporin) [2]: 32%
EC50 of killing of MCF7 cells, Fab-saporin assay [5]: 1.2 pM
EC50 (MCF7, Fab-saporin killing) [3]: 0.13 pM
binding result [4]: no binding
Kd [6]: 2000 pM
EC50 (MCF7, Fab-saporin killing) [7]: 1.22 pM

B7: SC10.36 (antibody, V domains shown)
VH: QVQLQQSGNELVRPGSAVKISCKASGYAFSSYWMNWVKQRPGQGLEWIGQIYPGDDDSNYNGKFKGKATLTADKSSSSAYMHLSSLTSEDSAVYFCARGFATPTMDYWGQGTSVTVSS
VL: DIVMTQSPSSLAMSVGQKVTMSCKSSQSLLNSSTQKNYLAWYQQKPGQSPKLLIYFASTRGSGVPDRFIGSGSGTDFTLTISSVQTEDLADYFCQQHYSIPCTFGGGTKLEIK
Normalized RLU at 10pM (MCF7, Fab-saporin) [1]: 40.7
Normalized RLU at 100pM (MCF7, Fab-saporin) [1]: 21.2

B8: SC10.35 (antibody, V domains shown)
VH: SDVQLQESGPGLVKPSQSLSLTCTVTDYSITSDYAWNWIRQFPGNNLEWMGNIGYSGDTSYNPSLKSRISITRDTSKNQFFLQLNSVTTEDSATYYCARSSLGPFDYWGQGTALTVSS
VL: QIVLTQSPAIMSASPGERVTLTCSASSSVSSSFLYWYQQKSGSSPKLWIYSTSTLASGVPARFSGSGSGTSYSLTISSMEAEDAASYFCHQWSSYPWTFGGGTKLEIK
EC50 (MCF7, Fab-saporin killing) [3]: 0.71 pM
Normalized RLU at 10pM (MCF7, Fab-saporin) [1]: 37.2
Normalized RLU at 100pM (MCF7, Fab-saporin) [1]: 19.4
EC50 (read off the curve) [8]: ~0.6 pM

Continued, in another order:

Normalized RLU at 10pM (MCF7, Fab-saporin) [1]: 64.8
Normalized RLU at 100pM (MCF7, Fab-saporin) [1]: 34
B1: SC10.168 (antibody, V domains shown)
VH: SDVQLQESGPGLVKPSQSLSVTCTVTDYSLTSGYYWNWIRQFPGNKLEWMAYIHSSGSTHYNPSLKSRISVTRDTSKNQFFLQLNSVTTEDTATYYCARDGAYYSSWFPYWGQGTLVTVSA
VL: DIVMTQSHKLMSASVGDRVSITCKASQDVGTAVAWYQQKPGRSPKLLIYWASNRHTGVPDRFTGSGSGTDFTLTISNVQSEDLADYFCQQFGSYPYTFGGGTKLEIKR

Percent live cells remaining at 10pM (MCF7, Fab-saporin) [2]: 68%
Normalized RLU at 10pM (MCF7, Fab-saporin) [1]: 68
Normalized RLU at 100pM (MCF7, Fab-saporin) [1]: 38.1
B3: SC10.178 (antibody, V domains shown)
VH: QILLVQSGPELKKPGETVKISCKANYTFTDYGMHWVKQAPGKGLKWMGWINPKTGVASYADDFKGRFAFSLETSASTAYLQINNLENEDTSIYFCARFFDYWGQGTTLTVSS
VL: DIVLTQSPLSLLVSLGDQASISCRSSQSLVHSNGNTYLHWYLQKPGQSPNLLIFKVSNRFSGVPDRFSGSGSGTDFTLRISRVEAEDLGVYFCSQTTHVWTFGGGTKLEIK
EC50 (MCF7, Fab-saporin killing) [3]: 3.1 pM

Normalized RLU at 10pM (MCF7, Fab-saporin) [1]: 91.5
Normalized RLU at 100pM (MCF7, Fab-saporin) [1]: 90.3
B4: SC10.163 (antibody, V domains shown)
VH: EVQLQQSGPELVKPGDSVKMSCKASGNTVTNYYMDWVKQSHGKSLEWIGYIYANNGGTSYNQKFKGKATLTVDKSSSTAYMEIHSLTSEDSAVYYCAIYYRYEFAYWGQGTLVTVSA
VL: DIVMTQAAFSNPVTLGTSASISCRSSKSLLHSNGITYLYWYLQKPGQSPQLLIYQMSNLASGVPDRFSNSGSGTDFTLRISRVEAEDVGVYYCAQNLELPWTFGGGTKLEIK

Percent live cells remaining at 10pM (MCF7, Fab-saporin) [2]: 101%
Normalized RLU at 10pM (MCF7, Fab-saporin) [1]: 101
Normalized RLU at 100pM (MCF7, Fab-saporin) [1]: 98.8
binding result [4]: no binding
B5: SC10.75 (antibody, V domains shown)
VH: QVQLKESGPGLVAPSQSLSITCTVTGFSLSRYSVHWIRQPPGKGLEWLGMIWGGGSTDYNSALKSRLSINKDNSKSQVFLKMNSLQTVDTAMYYCARTQFYYGHDGGYAMDYWGQGTSVTVSS
VL: DIVMSQSPSSLAVSVGEKVTMSCKSSQSLLYSNNQKNYLAWYQQKPGQSPKLLIYWASSRESGVPERFTGSGSGTDFTLTISSVKAEDLAVYYCQQYYSSPYTFGGGTKLK
notes: murine mAb; variable regions only

Reference: US20170121416A1 (AbbVie / Abbott, published 2017)
